Measured values reported in article PMC10698503, “Phosphatase specificity principles uncovered by MRBLE:Dephos and global substrate identification” (Molecular Systems Biology, 2023).

Columns and labels:
Venus-B55 = assay: Affinity purification (pulldown) of YFP/Venus-B55 from mitotic cells, label-free LC-MS/MS; format: binding, human; details: for log2 ratio [Venus-B55/Venus]: enrichment in Venus-B55 pulldown over Venus control, from 3 replicates each; for log2 IBAQ [Venus-B55 1] / log2 IBAQ [Venus-B55 2] / log2 IBAQ [Venus-B55 3]: pulldown of Venus-B55 from mitotic cells, label-free LC-MS/MS, log2 IBAQ of co-purified protein; for log2 IBAQ [Venus-B55 1]: replicate 1; for log2 IBAQ [Venus-B55 2]: replicate 2; for log2 IBAQ [Venus-B55 3]: replicate 3
Source text: (§1) We defined interactomes of PP1γ and B55α during mitosis using affinity purification of YFP‐tagged subunits and also proximity‐dependent ligation using miniTurbo to capture interactions at mitotic exit (Appendix Fig S8) (Branon et al, [2018]; Sears et al, [2019]). […] These identified proteins can constitute both regulators and substrates. […] To understand how these protein interactions might shape dephosphorylation, we first aimed at generating interactome networks and overlay regulated sites. We integrated interactomes and information from the STRING database (Szklarczyk et al, [2023]) with our regulated phosphorylation sites to generate a network of complexes and dephosphorylation sites (Fig 4C and Appendix Fig S9A). For PP1, we also integrated information on known and predicted RVxF motifs (Smith et al, [2019]). […] As an example, CASC5 (KNL1) could scaffold PP1 dephosphorylation of CENPC S261, a phosphorylation site in a nuclear localization sequence. In agreement with previous work, PP2A‐B55 regulated dephosphorylation of several nucleoporins at mitotic exit consistent with Nup153 and TPR being present in the interactomes (Cundell et al, [2016]).
(§2) PP1 and B55 cDNAs were cloned into modified versions of pcDNA5/FRT/TO (Invitrogen) to make N‐terminal fusions to YFP, BioID, or TurboID. Stable cell lines were generated into HeLa/FRT/TRex cells (kind gift from S. Taylor), and for YFP affinity, purification cells were synchronized with thymidine and released into nocodazole‐containing media to arrest them in mitosis. Cells were resuspended in lysis buffer (50 mM NaCl, 50 mM Tris 7,4, 1 mM EDTA, 0.1% NP40, 1 mM DTT, and protease inhibitor cocktail), and following sonication, the lysate was clarified by centrifugation. Cell lysate was incubated with GFP‐Trap beads (Chromotek) for 1 h, washed 3 × 1 ml with lysis buffer, and resuspended in SDS–PAGE loading buffer.
(§3) The Q‐Exactive Plus was set to perform an Orbitrap MS1 scan (R = 70 K; AGC target = 1e6) from 350 to 1,500 m/z, followed by HCD MS2 spectra on the 10 most abundant precursor ions detected by Orbitrap scanning (R = 17.5 K; AGC target = 1e5; max ion time = 50 ms) before repeating the cycle. Precursor ions were isolated for HCD by quadrupole isolation at width = 1 m/z and HCD fragmentation at 26 normalized collision energy (NCE). Charge state 2, 3, and 4 ions were selected for MS2. Precursor ions were added to a dynamic exclusion list ± 20 ppm for 15 s. […] Static modifications included carbamidomethylcysteine and variable modifications included oxidized methionine. […] Missing values were imputed from a normal distribution in Perseus to enable statistical analysis and visualization by volcano plot (Tyanova et al, [2016]). Statistical analysis was carried out in Perseus by two‐tailed Student's t‐test.

Venus-PP1 = assay: Affinity purification (pulldown) of YFP/Venus-PP1 from mitotic cells, label-free LC-MS/MS; format: binding, human; details: for B55 or PP1?: assignment of the co-purified protein as interactor of Venus-B55 and/or Venus-PP1 (both pulldowns); for log2 ratio [Venus-PP1/Venus]: enrichment in Venus-PP1 pulldown over Venus control, from 3 replicates each; for log2 IBAQ [Venus-PP1 1] / log2 IBAQ [Venus-PP1 2] / log2 IBAQ [Venus-PP1 3]: pulldown of Venus-PP1 from mitotic cells, label-free LC-MS/MS, log2 IBAQ of co-purified protein; for log2 IBAQ [Venus-PP1 1]: replicate 1; for log2 IBAQ [Venus-PP1 2]: replicate 2; for log2 IBAQ [Venus-PP1 3]: replicate 3
Source text: as §1, §2, §3

| Molecule | log2 ratio [Venus-B55/Venus] (Venus-B55) | log2 IBAQ [Venus-B55 1] (Venus-B55) | log2 IBAQ [Venus-B55 2] (Venus-B55) | log2 IBAQ [Venus-B55 3] (Venus-B55) | B55 or PP1? (Venus-PP1) | log2 ratio [Venus-PP1/Venus] (Venus-PP1) | log2 IBAQ [Venus-PP1 1] (Venus-PP1) | log2 IBAQ [Venus-PP1 2] (Venus-PP1) | log2 IBAQ [Venus-PP1 3] (Venus-PP1) |
| --- | --- | --- | --- | --- | --- | --- | --- | --- | --- |
| SF01_HUMAN (protein, UniProt Q15637 2-639, looked up) Splicing factor 1: ATGANATPLDFPSKKRKRSRWNQDTMEQKTVIPGMPTVIPPGLTREQERAYIVQLQIEDLTRKLRTGDLGIPPNPEDRSPSPEPIYNSEGKRLNTREFRTRKKLEEERHNLITEMVALNPDFKPPADYKPPATRVSDKVMIPQDEYPEINFVGLLIGPRGNTLKNIEKECNAKIMIRGKGSVKEGKVGRKDGQMLPGEDEPLHALVTANTMENVKKAVEQIRNILKQGIETPEDQNDLRKMQLRELARLNGTLREDDNRILRPWQSSETRSITNTTVCTKCGGAGHIASDCKFQRPGDPQSAQDKARMDKEYLSLMAELGEAPVPASVGSTSGPATTPLASAPRPAAPANNPPPPSLMSTTQSRPPWMNSGPSESRPYHGMHGGGPGGPGGGPHSFPHPLPSLTGGHGGHPMQHNPNGPPPPWMQPPPPPMNQGPHPPGHHGPPPMDQYLGSTPVGSGVYRLHQGKGMMPPPPMGMMPPPPPPPSGQPPPPPSGPLPPWQQQQQQPPPPPPPSSSMASSTPLPWQQNTTTTTTSAGTGSIPPWQQQQAAAAASPGAPQMQGNPTMVPLPPGVQPPLPPGAPPPPPPPPPGSAGMMYAPPPPPPPPMDPSNFVTMMGMGVAGMPPFGMPPAPPPPPPQN | 3.74 | 18.20 | 19.35 | 19.45 | B55/PP1 | 4.15 | 19.13 | 19.69 | 20.57 |
| EBP2_HUMAN (protein, UniProt Q99848 1-306, looked up) Probable rRNA-processing …: MDTPPLSDSESESDESLVTDRELQDAFSRGLLKPGLNVVLEGPKKAVNDVNGLKQCLAEFKRDLEWVERLDVTLGPVPEIGGSEAPAPQNKDQKAVDPEDDFQREMSFYRQAQAAVLAVLPRLHQLKVPTKRPTDYFAEMAKSDLQMQKIRQKLQTKQAAMERSEKAKQLRALRKYGKKVQTEVLQKRQQEKAHMMNAIKKYQKGFSDKLDFLEGDQKPLAQRKKAGAKGQQMRKGPSAKRRYKNQKFGFGGKKKGSKWNTRESYDDVSSFRAKTAHGRGLKRPGKKGSNKRPGKRTREKMKNRTH | 1.82 | 20.14 | 18.75 | 20.44 | B55/PP1 | 6.44 | 24.17 | 24.63 | 27.56 |
| GAR1_HUMAN (protein, UniProt Q9NY12 1-217, looked up) H/ACA ribonucleoprotein …: MSFRGGGRGGFNRGGGGGGFNRGGSSNHFRGGGGGGGGGNFRGGGRGGFGRGGGRGGFNKGQDQGPPERVVLLGEFLHPCEDDIVCKCTTDENKVPYFNAPVYLENKEQIGKVDEIFGQLRDFYFSVKLSENMKASSFKKLQKFYIDPYKLLPLQRFLPRPPGEKGPPRGGGRGGRGGGRGGGGRGGGRGGGFRGGRGGGGGGFRGGRGGGFRGRGH | 3.89 | 18.68 | 18.13 | 17.35 | B55/PP1 | 5.49 | 19.45 | 19.86 | 24.60 |
